In experiment [1] the target is substrate-trapping ClpB variant (E279Q/E678Q) (Escherichia coli, UniProt P63284, E279Q/E678Q). Type of experiment: binding. The settings on record: ClpB with ATP, buffer A, room temperature.
In experiment [2] the target is ATP-hydrolysis deficient substrate-trapping ClpB variant (E279Q/E678Q) (Escherichia coli, UniProt P63284 1-857, E279Q | E678Q). Kind of experiment: fluorescence polarisation.

The star is where a group is joined. FITC = O=C1OC2(c3ccc(O)cc3Oc3cc(O)ccc32)c2ccc(NC(=S)*)cc21

For `O=C1OC2(c3ccc(O)cc3Oc3cc(O)ccc32)c2ccccc21` [fluorescein], the “anisotropy change of free label with ClpB” value in experiment [1] is given as “did not affect the anisotropy”. {FITC}-KLFFNLR-NH2 [peptide B2T1]: binding in experiment [2] was put at a Kd of 912 ± 231 nM. Take {FITC}-AHAWQHQGKTLFISRKTYRI-NH2 [peptide B1]: the Kd in experiment [2] came out at 46.8 ± 1.5 nM. In the case of {FITC}-QQFRNRRKLTFLKKLGWFNQ-NH2 [peptide B2B], the affinity in experiment [2], expressed as Kd, was 11.5 ± 0.52 nM.

As to {FITC}-RLGWFNQ-NH2 [peptide B2T2], the Kd in experiment [2] is above 1000 nM. With {FITC}-QGQFRNLRRKQLWTFFLNKK-NH2 [peptide B2A], the equilibrium dissociation constant (Kd) in experiment [2] stood at 10.2 ± 0.8 nM.

FHAWQHQGKTLAISRKTYRI (FITC on the N-terminus; C-terminal amide) [peptide B1N] came in with a Kd in experiment [2] of 7.26 ± 0.32 nM.

Turning to {FITC}-KTLFISR-NH2 [peptide B1T], the Kd in experiment [2] is 329 ± 39 nM. The same measure, in the same setting: in the case of {FITC}-QLWQGQFRNLRRKTFFKKLN-NH2 [peptide B2N] it was 17.5 ± 0.92 nM.

These data come from paper PMC6139261 (Archives of biochemistry and biophysics, 2018).
